Source: patent publication US6114296

How the values were obtained:
[1] = target: Humicola insolens 43 kD endoglucanase (Humicola insolens)
[2] = target: Variant I: V221S+N222S+Q223T (Humicola insolens)
[3] = target: Variant II: V240P+Q241P (Humicola insolens)

Savinase protease (from UniProt P29600) (enzyme)
Residual Activity, % DAA (25° C., 5 d storage in liquid detergent with protease) [1]: 63 % DAA
Residual Activity, % DAA (25° C., 5 d storage in liquid detergent with protease) [2]: 83 % DAA
Residual Activity, % DAA (25° C., 5 d storage in liquid detergent with protease) [3]: 81 % DAA
